The text below walks through data of patent US9724426B2, “Agents, uses and methods” (AFFINICON APS, priority 2009, dated 2017).

Series [1] has as its system LPS mediated TNFα stimulation. Nature of the series: Rat in vivo LPS model. On the set-up: species or system Lewis rats. The conditions noted are these: i.v., challenged with LPS; 2 hours post LPS.
The subject of series [2] is collagen-induced arthritis.
Method: The effect of dexamethasone on arthritis development in the rat CIA model was tested at three dosages (0.01, 0.1 and 1 mg/kg). Dexamethasone was administered intravenously on day 10 (day of disease onset), 13, 16 and 19. Dexamethasone conjugate produced as described in Example 5 was tested at 0.01 mg/kg using the same treatment regimen as for dexamethasone. Treatment with vehicle (PBS/2.5% EtOH) served as negative control. Rats were sacrificed 21 days after immunization.
Collagen arthritis was induced in 9 weeks old female Lewis rats using a two-step immunization protocol. […]
Rats were evaluated 6 times per week (once during weekends) for arthritis severity using a macroscopic scoring system of 0-4 for each paw as detailed below: • 0=no signs of arthritis • 0.5=unloading of the paw and/or light redness of ankle joint • 1=redness and mild swelling of the ankle joint • 2=redness and swelling of paw • 3=severe redness and swelling of entire paw including digits • 4=maximally swollen paw, often involvement of multiple joints and extending towards knee joint.
The total clinical score of an individual rat is defined as the sum of the clinical scores of all four paws for each day. At the end of the study, the cumulative arthritis score was calculated for each rat. […]
The swelling of the hind paws was measured during weekdays with a laser scan micrometer (Mitutoyo, LSM-503S/6200). […]
Series [3] deals with T1, CD163 (Homo sapiens, UniProt Q86VB7). The series is described as follows: ELISA antibody reactivity comparison. The class given is binding. The method, then:
A nunc maxisorp plate was coated with the following (50 μl/well) over night at 4° C.: 4 μg/ml goat anti-human kappa chain antibody (AbD Serotec, Oxford, UK) and ˜4 μg/ml human CD163 (purified as described in 8). Buffer was carbonate buffer, pH 9.0. Each measurement was made in duplicate.
4) After blocking, the primary antibody was added (100 μl per well).
For CD163 ELISA • 100 μl/well of goat anti human IgG (H&L) HRP 1:6000 in PBS containing 1% BSA. • For Mac2-158 goat anti-mouse HRP 1:2000 in PBS containing 1% BSA is added to the wells 7) Step 1 was repeated 8) The ELISA was developed by adding 75 μl of TMB substrate to each well. Incubation was performed for 3 min. 9) The reaction was stopped by adding 30 μl 2 NH2SO4 to the wells. 10) The plate was read in an ELISA reader at 450 nm.
Background was measured on wells with no coating and wells with no primary antibody.
(In general: An ELISA detects its analyte on a solid surface through an enzyme-linked reagent.)

Series [4] addresses T1, CD163. Nature of the series: Fab fragment activity measured by ELISA. The class given is binding. The method, then: A nunc maxisorp plate was coated with ˜1 μg/ml human CD163 (purified as described by Kristiansen, M. et al. ((2001). Identification of the haemoglobin scavenger receptor. Nature 11:409(6817): 198-201)) was added at 50 μl/well and incubated over night at 4° C. Buffer for coating was carbonate, pH 9.0. Each measurement was made in duplicates.
The primary antibody samples used in ELISA was undiluted supernatant or 30 times concentrated supernatant from transfected cells or antibody standard 100 ng/ml KN2/NRY antibody diluted in PBS containing 1% BSA. The supernatant was concentrated on VIVAspin centrifugal concentrator (10.000 MWCO) (Sigma-Aldrich, Brøondby, Denmark).
The ELISA steps were as follows: ELISA plates were washed 3 times in PBS and blocked with PBS containing 3% BSA for 1 h. After blocking the primary antibody samples were added to the wells (100 μl/well). 2 fold dilution series were made on all samples and standards (dilutions in PBS containing 1% BSA). The samples were incubated on the plates for 1 h. Subsequently, the plates were washed 3 times in PBS and secondary antibody goat anti human kappa chain HRP (AbD Serotec, Oxford, UK) 1:4000 in PBS containing 1% BSA (100 μl/well) was added to the wells. […] The plates were read in an ELISA reader at 450 nm.
Background was measured on both wells with no coating and wells with no primary antibody.

The target in series [5] is T1, CD163. Nature of the series: scFv ELISA. The conditions noted are these: two-fold dilution series. Format: binding. On the procedure:
A nunc Maxisorp ELISA plate (NUNC, Roskilde, Denmark) was coated with 50 μl/well of 2 μg/ml of CD163 (purified as described in (2)) over night at 4° C. The coated plate was washed 3 times in PBS and blocked for 1 hour with 3% BSA in PBS. Fractions from scFv purification were tested by adding 100 μl/well of a 1:10 dilution of each sample in 1% BSA, PBS. The refolded protein sample was added directly to the wells (100 μl/well) and two-fold dilution series was made with dilution in 1% BSA in PBS. After 1 hour incubation at 4° C. the plate was washed 3 times in PBS again. Secondary detection was made with a 1 hour incubation of a HRP conjugated anti-His antibody (Sigma-Aldrich, Brøondby, Denmark) (1:4000 diluted in 1% BSA, PBS). After washing 3 times in PBS the ELISA was developed with […] TMB substrate (Invitrogen, Taastrup, Denmark). The reaction was stopped with 40 μl/well of 1 M H2SO4 and the plate was read in an ELISA reader at 450 nm.

Positions count from the first letter of the chain named.

T1 sequence (Q86VB7 42-1156): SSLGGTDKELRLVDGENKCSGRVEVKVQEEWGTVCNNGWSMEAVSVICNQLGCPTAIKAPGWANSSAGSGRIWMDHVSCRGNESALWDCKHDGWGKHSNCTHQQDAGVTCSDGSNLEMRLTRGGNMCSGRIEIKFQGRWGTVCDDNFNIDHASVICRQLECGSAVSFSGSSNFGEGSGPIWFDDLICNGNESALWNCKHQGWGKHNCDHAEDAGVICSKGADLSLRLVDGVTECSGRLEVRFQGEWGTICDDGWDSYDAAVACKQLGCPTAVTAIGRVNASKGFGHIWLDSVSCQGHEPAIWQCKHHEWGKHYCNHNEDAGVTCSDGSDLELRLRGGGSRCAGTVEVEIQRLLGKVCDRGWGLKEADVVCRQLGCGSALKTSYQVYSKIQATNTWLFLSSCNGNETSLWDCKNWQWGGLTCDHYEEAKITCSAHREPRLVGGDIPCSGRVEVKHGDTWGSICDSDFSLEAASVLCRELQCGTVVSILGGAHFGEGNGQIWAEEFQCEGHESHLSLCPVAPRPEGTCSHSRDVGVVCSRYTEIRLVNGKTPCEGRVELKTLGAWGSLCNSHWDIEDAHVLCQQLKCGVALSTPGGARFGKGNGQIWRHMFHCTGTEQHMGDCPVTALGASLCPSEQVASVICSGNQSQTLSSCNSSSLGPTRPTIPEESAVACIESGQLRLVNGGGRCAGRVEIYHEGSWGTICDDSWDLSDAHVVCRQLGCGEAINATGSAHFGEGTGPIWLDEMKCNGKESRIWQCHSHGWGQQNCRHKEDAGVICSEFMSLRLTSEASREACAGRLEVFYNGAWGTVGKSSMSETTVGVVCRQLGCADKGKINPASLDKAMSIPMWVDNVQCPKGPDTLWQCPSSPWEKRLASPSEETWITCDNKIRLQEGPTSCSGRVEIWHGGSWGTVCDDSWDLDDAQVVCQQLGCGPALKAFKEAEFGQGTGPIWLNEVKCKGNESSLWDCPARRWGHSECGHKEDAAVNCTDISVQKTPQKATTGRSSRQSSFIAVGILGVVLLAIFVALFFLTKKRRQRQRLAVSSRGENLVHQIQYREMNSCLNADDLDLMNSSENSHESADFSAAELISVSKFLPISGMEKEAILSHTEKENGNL

Consider `CC1(C)O[C@@H]2C[C@H]3[C@@H]4C[C@H](F)C5=CC(=O)C=C[C@]5(C)[C@@]4(F)[C@@H](O)C[C@]3(C)[C@]2(C(=O)CO)O1` [fluocinolone, Fluocinolone acetonide], for which the “TNFα level, lower compared to vehicle” value in series [1] was found to be 5 times.
As for `C[C@@H]1C[C@H]2[C@@H]3CCC4=CC(=O)C=C[C@]4(C)[C@@]3(F)[C@@H](O)C[C@]2(C)[C@@]1(O)C(=O)CO` [dexamethasone], the “spleen and liver weights compared to the vehicle group” value in series [2] (0.01, 0.1 and 1 mg/kg groups) is listed as “No significant differences”. Further, the “thymus weight compared to the vehicle group” value in series [2] (0.1 and 1 mg/kg groups, at sacrifice day 21) is recorded as “significantly decreased”.

B1: cgamma(6)/K8: chimeric heavy chain cgamma(6) paired with humanized light chain K8 (antibody)
VH: DVQLQESGPGLVKPSQSLSLTCTVTGYSITSDYAWNWIRQFPGNKLEWMGYITYSGITNYNPSLKSQISITRDTSKNQFFLQLNSVTTEDTATYYCVSGTYYFDYWGQGTTLTVSS
light: DIVMTQSPSSLSASVGDRVTITCRASQSVSSDVAWFQQKPGKSPKPLIYYASSLQSGVPSRFSGSGSGTDFTLTISSLQAEDFAVYFCGQDYTSPRTFGGGTKLEIKRTVAAPSVFIFPPSDEQLKSGTASVVCLLNNFYPREAKVQWKVDNALQSGNSQESVTEQDSKDSTYSLSSTLTLSKADYEKHKVYACEVTHQGLSSPVTKSFNRGEC
On to B1, for which the “amount of antibody in sample to obtain the same reactivity as cgamma(6)/NRY” value with CD163 [3] is recorded as “approximately twice as much antibody”. In the series with CD163 [3] (supernatant from transiently transfected CHO-S cells), the “reactivity towards CD163 in ELISA” value is on record as “almost identical”.

B2: Fab fragment: Fab of KN2/NRY: heavy chain KN2 with P220 mutated to stop, SEQ ID NO: 82, with light chain NRY (antibody)
heavy: QVQLQESGPGLVKPSETLSLTCTVSGYSITSDYAWNWIRQFPGNKLEWMGYITYSGSTYYNPSLKSRVTISVDTSKNQFSLKLSSVTAADTATYYCVSGTYYFDYWGQGTTLTVSSASTKGPSVFPLAPCSRSTSESTAALGCLVKDYFPEPVTVSWNSGALTSGVHTFPAVLQSSGLYSLSSVVTVPSSSLGTKTYTCNVDHKPSNTKVDKRVESKYG
light: B1 light with S53N, L54R, Q55Y
As for B2, the “ELISA signal and dilution series” value in the series with CD163 [4] (30× concentrated supernatant, standard 100 ng/ml KN2/NRY) is “comparable to the standard dilution series”. For the same molecule, the ELISA signal result with CD163 [4] (undiluted, non-concentrated supernatant) was “very small signal”.

B3: scFv: scFv (VH-15 residue linker-VL), SEQ ID NO: 77, expressed in E. coli and refolded (protein)
scFv: MDQVQLQESGPGLVKPSETLSLTCTVSGYSITSDYAWNWIRQFPGNKLEWMGYITYSGSTYYNPSLKSRVTISVDTSKNQFSLKLSSVTAADTATYYCVSGTYYFDYWGQGTTLTVSSGGGGSGGGGSGGGGSDIVMTQSPSSLSASVGDRVTITCRASQSVSSDVAWFQQKPGKSPKPLIYYASNRYSGVPSRFSGSGSGTDFTLTISSLQAEDFAVYFCGQDYTSPRTFGGGTKLEIKREQKLISEEDL
modifications: scFv sequence
For B3, in the series with CD163 [5], the “dilution down to which signals were detected” value was found to be 128 fold.
